Laboratory results reported in patent publication US20260151494A1 (ARO BIOTHERAPEUTICS, published 2026).

Experiments:
[1] = molecular target: T1, human CD71 extracellular domain (human, UniProt P02786 89-760); test: primary ELISA, signal ratio to HSA
T1 construct: also called hCD71; human CD71-ECD

[2] = molecular target: T2, apical domain of cynomolgus CD71 (cynomolgus, UniProt A0A2K5X958 189-383); test: primary ELISA, signal ratio to HSA
T2 construct: domain: apical domain; also called Cyno apical domain
T2 sequence (A0A2K5X958 entry or part of it): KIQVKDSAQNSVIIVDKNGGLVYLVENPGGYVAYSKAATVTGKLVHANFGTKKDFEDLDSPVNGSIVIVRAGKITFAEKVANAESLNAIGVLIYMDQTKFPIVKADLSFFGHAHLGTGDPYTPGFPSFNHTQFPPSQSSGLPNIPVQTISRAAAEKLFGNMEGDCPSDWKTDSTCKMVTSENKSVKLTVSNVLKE

[3] = molecular target: T1, human CD71 extracellular domain; test: primary ELISA; note: test concentration or dose not given here
[4] = molecular target: T2, apical domain of cynomolgus CD71; test: primary ELISA; note: test concentration or dose not given here

T1 sequence (P02786 89-760): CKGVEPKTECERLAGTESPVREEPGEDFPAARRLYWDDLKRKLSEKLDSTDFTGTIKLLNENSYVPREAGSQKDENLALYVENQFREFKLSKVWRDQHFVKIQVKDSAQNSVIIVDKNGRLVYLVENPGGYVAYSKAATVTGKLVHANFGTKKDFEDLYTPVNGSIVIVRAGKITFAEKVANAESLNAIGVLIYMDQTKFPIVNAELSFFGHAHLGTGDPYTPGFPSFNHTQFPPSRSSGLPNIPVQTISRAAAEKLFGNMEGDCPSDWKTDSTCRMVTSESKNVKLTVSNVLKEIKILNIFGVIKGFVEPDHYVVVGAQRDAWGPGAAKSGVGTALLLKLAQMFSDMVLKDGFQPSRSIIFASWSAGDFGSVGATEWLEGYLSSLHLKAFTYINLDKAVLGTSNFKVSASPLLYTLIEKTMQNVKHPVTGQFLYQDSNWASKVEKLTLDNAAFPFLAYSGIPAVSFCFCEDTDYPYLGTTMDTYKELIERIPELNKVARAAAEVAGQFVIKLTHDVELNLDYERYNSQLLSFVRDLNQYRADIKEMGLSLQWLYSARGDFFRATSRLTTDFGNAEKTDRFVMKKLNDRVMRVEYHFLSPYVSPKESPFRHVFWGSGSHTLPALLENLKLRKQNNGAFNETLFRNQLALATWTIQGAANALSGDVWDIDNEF

Binder | hCD71:HSA [1] | Cyno apical domain:HSA [2] | RLU [3] | RLU [4]
CD71-binding FN3 domain of SEQ ID NO: 133 (designed binder) MSLPAPKNLVVSRVTEDSARLSWTAPDAAFDSFKIKYAEYDRYGEAIALFVPGSERSYDLTGLKPGTEYFVHIDGVKGGTDSQPLVASFTT | 138 | 387 | 1.83e+06 RLU | 5.11e+06 RLU
CD71-binding FN3 domain of SEQ ID NO: 153 (designed binder) MSLPAPKNLVVSRVTEDSARLSWTAPDAAFDSFYIAYAEPRPDGEAIVLAVPGSERSYDLTGLKPGTEYSVLIHGVKGGLLSSPLGADFTT | 141 | 127 | 4.57e+06 RLU | 4.11e+06 RLU
CD71-binding FN3 domain of SEQ ID NO: 165 (designed binder) MSLPAPKNLVVSRVTEDSARLSWTAPDAAFDSFYIAYAEPRPDGEAILLEVPGSERSYDLAGLKPGTEYSVLIHGVKGGLLSSPLGAEFTT | 305 | 259 | 4.25e+06 RLU | 3.62e+06 RLU
CD71-binding FN3 domain of SEQ ID NO: 125 (designed binder) MSLPAPKNLVVSRVTEDSARLSWTAPDAAFDSFYIAYAEPRPDGEAIILLVPGSERSYDLTGLKPGTEYSVLIHGVKGGLLSSPLHAHFTT | 109 | 153 | 3.64e+06 RLU | 5.09e+06 RLU
CD71-binding FN3 domain of SEQ ID NO: 195 (designed binder) MSLPAPKNLIVSRVTEDSARLSWTAPDAAFDSFEIGYFENLYLGEAIVLTVPGSERSYDLTGLKPGTEYWVQIGGVKGSNWSAPLSAIFTT | 106 | 155 | 2.88e+06 RLU | 4.2e+06 RLU
CD71-binding FN3 domain of SEQ ID NO: 213 (designed binder) MSLPAPKNLVVSRVTEDSARLSWTAPDAAFDSFEIGYFENLYLGEAIVLTVPGSERSYDLTGLKPGTEYWVQIGGAKGGNWSAPLSAIFTT | 130 | 251 | 2.46e+06 RLU | 4.74e+06 RLU
CD71-binding FN3 domain of SEQ ID NO: 214 (designed binder) MSLPAPKNLVVSRVTEDSARLSWTAPDAAFDSFEIDYGEYSQAGEAIGLLVPGSERSYDLTGLKPGTEYWVQIGGVKGGNWSAPLSAIFTT | 36 | 148 | 1.01e+06 RLU | 4.2e+06 RLU
CD71-binding FN3 domain of SEQ ID NO: 202 (designed binder) MSLPAPKNLVVSRVTEDSARLSWTAPDAAFDSFEIGYFENLYLGEAIVLTVPGSERSYDLTGLKPGTEYYVHIGGVKGGIWSSPLSAIFTT | 58 | 184 | 1.11e+06 RLU | 3.51e+06 RLU
CD71-binding FN3 domain of SEQ ID NO: 215 (designed binder) MSLPAPKNLVVSRVTEDSARLSWTAPDAAFDSLEIGYFENLYLGEAIVLTVPGSERSYDLTGLKPGTEYWVQIGGVKGGNWSAPLSAIFTT | 48 | 71 | 3.34e+06 RLU | 4.95e+06 RLU
CD71-binding FN3 domain of SEQ ID NO: 209 (designed binder) MSLPAPKNLVVSRVTEDSARLSWTAPDAAFDSFEIAYFERTWFGEAIVLTVPGSERSYDLTGLKPGTEYWVQIGGVKGGDWSRPLSAIFTT | 356 | 423 | 4.27e+06 RLU | 5.07e+06 RLU
CD71-binding FN3 domain of SEQ ID NO: 211 (designed binder) MSLPAPKNLVVSRVTEDSARLSWTAPDAAFDSFEIVYAEPVRFGEAIVLTVPGSERSYDLTGLKPGTEYWVQIGGVKGGEWSSLLSAIFTT | 76 | 177 | 2.02e+06 RLU | 4.67e+06 RLU
CD71-binding FN3 domain of SEQ ID NO: 205 (designed binder) MSLPAPKNLVVSRVTEDSARLSWTAPDAAFDSFEIGYFENLYLGEAIHLFVPGSERSYDLTGLKPGTEYNVTIQGVKGGFPSEPLIANFTT | 53 | 213 | 1.02e+06 RLU | 4.1e+06 RLU
CD71-binding FN3 domain of SEQ ID NO: 212 (designed binder) MSLPAPKNLVVSRVTEDSARLSWTAPDAAFDSFEIGYFENLYLGEAIVLTVPGSERYYDLTGLKPGTEYWVQIGGVKGGNWSAPLSAIFTT | 97 | 176 | 2.82e+06 RLU | 5.13e+06 RLU
CD71-binding FN3 domain of SEQ ID NO: 208 (designed binder) MSLPAPKNLVVSRVTEDSARLSWTAPDAAFDSFFIGYFENLYLGEAIVLTVPGSERSYDLTGLKPGTEYWVQIGGVKGGNWSAPLSAIFTT | 142 | 19 | 4.06e+06 RLU | 5.45e+06 RLU
CD71-binding FN3 domain of SEQ ID NO: 217 (designed binder) MSLPAPKNLVVSRVTEDSARLSWTAPDAAFDSFEIAYFEQTYTGEAIVLTVPGSERSYDLTGLKPGTEYWVAIGGVKGGLWSLPLSAIFTT | 43 | 74 | 2.33e+06 RLU | 3.98e+06 RLU
CD71-binding FN3 domain of SEQ ID NO: 207 (designed binder) MSLPAPKNLVVSRVTEDSARLSWTAPDAAFDSFEIGYWENAYKGEAIVLTVPGSERSYDLTGLKPGTEYVVFIGGVKGGVWSVPLSAISTT | 22 | 31 | 3.58e+06 RLU | 4.94e+06 RLU
CD71-binding FN3 domain of SEQ ID NO: 200 (designed binder) MSLPAPKNLVVSRVTEDSARLSWTAPDAAFDSFEIGYFENLYLGEAIVLTVPGSERSYDLTGLKPGTEYWVQIGGVKGSNWSAPLSAIFTT | 127 | 172 | 3.49e+06 RLU | 4.72e+06 RLU
CD71-binding FN3 domain of SEQ ID NO: 199 (designed binder) MSLPAPKNLVVSRVTEDSARLSWTAPDAAFDSFEIGYFENLYLGEAIVLTVPGYERSYDLTGLKPGTEYWVQIGGVKGGNWSAPLSAIFTT | 170 | 187 | 4.45e+06 RLU | 4.9e+06 RLU
CD71-binding FN3 domain of SEQ ID NO: 206 (designed binder) MSLPAPKNLVASRVTEDSARLSWTAPDAAFDSFEIGYFENLYLGEAIVLTVPGSERSYDLTGLKPGTEYWVQIGGVKGGNWSAPLSAIFTT | 49 | 67 | 3.9e+06 RLU | 5.33e+06 RLU
CD71-binding FN3 domain of SEQ ID NO: 203 (designed binder) MSLPAPKNLVVSRVTEDFARLSWTAPDAAFDSFEIAYWEQSYTGEAIVLTVPGSERSYDLTGLKPGTEYFVHIGGVKGGVWSTPLSAIFTT | 168 | 362 | 2.25e+06 RLU | 4.85e+06 RLU
CD71-binding FN3 domain of SEQ ID NO: 201 (designed binder) MSLPAPKNLVVSRVTEDSARLSWTAPDAAFDSFEIAYFEGTFHGEAIVLFVPGSERSYDLTGLKPGTEYAVWIGGVKGGDYSRPLSAAFTT | 40 | 76 | 1.59e+06 RLU | 3.01e+06 RLU
CD71-binding FN3 domain of SEQ ID NO: 216 (designed binder) MSLPAPKNLVVSRVTEDSARLSWTAPDAAFDSFEIAYFEQTYTGEAIVLTVPGSERSYDLTGLKPGTEYWVQIGGVKGGTWSAPLSAISTT | 80 | 119 | 3.37e+06 RLU | 5.04e+06 RLU
CD71-binding FN3 domain of SEQ ID NO: 134 (designed binder) MSLPAPKNLVVSRVTEDSARLSWTAPDAAFDSFDINYWENESGGEAIALFVPGSERSYDLTGLKPGTEYLVTIAGVKGGWWSKPLYATFTT | 192 | 245 | 4.52e+06 RLU | 5.77e+06 RLU
CD71-binding FN3 domain of SEQ ID NO: 128 (designed binder) MSSLPAPKNLVVSRVTEDSARLSWTAPDAAFDSFEIGYFENLYLGEAIVLTVPGSERSYDLTGLKPGTEYWVQIGGVKGGNWSAPLSAIFTT | 215 | 259 | 4.62e+06 RLU | 5.56e+06 RLU
CD71-binding FN3 domain of SEQ ID NO: 185 (designed binder) MGSLPAPKNLVVSRVTEDSARLSWTAPDAAFDSFEISYWEHTFNGEAIILFVPGSERSYDLTGLKPGTEYWVQIGGVKGGNWSAPLSAIFTT | 148 | 267 | 2.26e+06 RLU | 4.08e+06 RLU
CD71-binding FN3 domain of SEQ ID NO: 123 (designed binder) MSLPAPKNLVVSRVTEDSARLSWTAPDAAFDSFAIRYWELRATGEAIPLSVPGSERSYDLTGLKPGTEYHVAISGVKGGKSSYPLRASFTT | 108 | 125 | 4.51e+06 RLU | 5.2e+06 RLU
CD71-binding FN3 domain of SEQ ID NO: 121 (designed binder) MSLPAPKNLVVSRVTEDSARLSWTAPDAAFDSFFIGYLEPQPPGEAITLYVPGSERSYDLTGLKPGTEYNVTIQGVKGGFPSAPLSAIFTT | 109 | 125 | 5.42e+06 RLU | 6.22e+06 RLU
CD71-binding FN3 domain of SEQ ID NO: 127 (designed binder) MSLPAPKNLVVSRVTEDSARLSWTAPDAAFDSFFIGYLEPQPPGEAITLLVPGSERSYDLTGLKPGTEYNVTIQGVKGGFPSGPLQASFTT | 188 | 259 | 4.73e+06 RLU | 6.52e+06 RLU
CD71-binding FN3 domain of SEQ ID NO: 129 (designed binder) MGGSLPAPKNLVVSRVTEDSARLSWTAPDAAFDSFEIGYFENLYLGEAIVLTVPGSERSYDLTGLKPGTEYWVQIGGVKGGNWSAPLSAIFTT | 159 | 313 | 2.49e+06 RLU | 4.89e+06 RLU
